# Data reported in the supplement of paper PMC10126150.
# ± gives the standard deviation of the averaged measurements.
# Test system: ATP
# Assay: switch fluorescence ratio, 500 uM ATP over buffer (Cy3 cluster intensity, sum of 5 cycles each) (fold (ratio)); higher = stronger signal-on switching upon ATP binding; sequences stand for … in TCGTCGGCAGCGTCAGATGTGTATAAGAGACAGTTTTTTTTTTTTTTTTTTTTTTTTT…TC
# Settings: aptamer strand: ATP DNA aptamer (quencher-CACCTGGGGGAGTATTGCGGAGGAAGG + anchor), 100 nM annealed; ATP concentration: 500 uM
# In short: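 Cy3-labelled switching-strand clusters on a modified Illumina MiSeq flow-cell were annealed to 100 nM quencher-labelled ATP aptamer and imaged first in selection buffer, then after 15 min with 500 uM ATP at 22 °C. NaOH stripping and re-annealing separated each of five buffer/ATP cycles, and clusters outside 100-1000 RFU were excluded. The fluorescence ratio sums target-cycle Cy3 intensity over buffer-cycle Cy3 intensity per cluster and averages it per switch-domain sequence.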
# 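Also: ATP exposure 15 min at 22 °C before imaging.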
row,Sequence,switch fluorescence ratio
1,CATAGGGGCC,0.9643 ± 0.0074
2,CATAGGTAAG,0.9837 ± 0.0022
3,CATAGTTTGC,0.9979 ± 0.0053
4,CATATAATTG,0.976 ± 0.014
5,CATATAGAGG,1.01 ± 0.054
6,CATATATTTT,1.04 ± 0.058
7,CATATCGGAA,1.187 ± 0.0077
8,CATATGGTAT,1.02 ± 0.037
9,CATATTATGA,0.987 ± 0.012
10,CATATTCTTT,0.979 ± 0.016
11,CATATTGCTT,0.993 ± 0.028
12,CATATTGGTC,1 ± 0.062
13,CATATTTGGG,0.981 ± 0.081
14,CATATTTTGT,1.0216 ± 0.00042
15,CATATTTTTG,0.996 ± 0.013
16,CATCAATGTG,0.997 ± 0.052
17,CATCAGGATG,1.01 ± 0.031
18,CATCAGGGTT,0.974 ± 0.013
19,CATCAGTGGT,1.03 ± 0.032
20,CATCATGGTC,1.03 ± 0.054
21,CATCATTGGG,0.993 ± 0.016
22,CATCCGGGGT,2.04 ± 0.57
23,CATCCTGAAT,1.08 ± 0.027
24,CATCGGCTCA,1.12 ± 0.067
25,CATCGGGGTA,1.02 ± 0.029
26,CATCGTGGGT,0.975 ± 0.027

row,Sequence,switch fluorescence ratio
1,CATCTCATAT,1.02 ± 0.028
2,CATCTGTG,1.03 ± 0.016
3,CATCTTATGA,0.99 ± 0.0043
4,CATCTTGAAT,1 ± 0.046
5,CATGATGAGA,0.969 ± 0.035
6,CATGATTATT,0.986 ± 0.024
7,CATGCACACT,1.11 ± 0.053
8,CATGCACCGG,0.986 ± 0.05
9,CATGCAGATA,1.006 ± 0.0094
10,CATGCCAGAT,0.994 ± 0.028
11,CATGCGTTTT,1.04 ± 0.043
12,CATGCTACGG,1.01 ± 0.016
13,CATGCTAGAG,0.99 ± 0.025
14,CATGCTGGGG,0.9941 ± 0.0022
15,CATGGAAGGC,0.957 ± 0.03
16,CATGGCCTTA,0.972 ± 0.0097
17,CATGGGAGGG,1.01 ± 0.029
18,CATGGGAGGT,0.9711 ± 0.0067
19,CATGGGCGGG,0.983 ± 0.022
20,CATGGGGAGT,0.969 ± 0.024
21,CATGGGGGGG,0.982 ± 0.043
22,CATGGGGGTG,1 ± 0.021
23,CATGGGTTAT,0.981 ± 0.05
24,CATGTAGGCA,0.99 ± 0.046
25,CATGTCGACT,0.988 ± 0.046
26,CATGTCGGCA,1 ± 0.019

row,Sequence,switch fluorescence ratio
1,CATGTGACCA,0.988 ± 0.038
2,CATGTGATGG,1.06 ± 0.044
3,CATGTGATTT,0.992 ± 0.023
4,CATGTGGGGA,1.021 ± 0.004
5,CATGTGGGTA,0.981 ± 0.053
6,CATGTGGTGG,0.998 ± 0.039
7,CATGTGTTTT,0.9744 ± 0.0041
8,CATGTTGGAT,0.964 ± 0.029
9,CATGTTTCTA,0.995 ± 0.02
10,CATTAAAATT,0.994 ± 0.028
11,CATTAACAGG,1.03 ± 0.021
12,CATTAAGGCT,1.01 ± 0.071
13,CATTAGATGC,1.06 ± 0.056
14,CATTAGCGAT,1.5 ± 0.091
15,CATTAGGGGG,1.04 ± 0.037
16,CATTAGTCTC,1.02 ± 0.053
17,CATTAGTTGG,1.006 ± 0.0052
18,CATTATCTGG,1.01 ± 0.072
19,CATTATGCGG,1 ± 0.025
20,CATTATTGGC,1.06 ± 0.025
21,CATTCATGAT,0.9858 ± 0.0086
22,CATTCGCTGA,1.92 ± 0.19
23,CATTCTTTTT,1.02 ± 0.049
24,CATTGACATA,1.07 ± 0.034
25,CATTGAGTTG,0.973 ± 0.018
26,CATTGCAGAT,0.981 ± 0.037

row,Sequence,switch fluorescence ratio
1,CATTGCAGTT,1.01 ± 0.026
2,CATTGCCCGT,0.989 ± 0.017
3,CATTGCGATT,1.13 ± 0.14
4,CATTGGGAGA,0.984 ± 0.011
5,CATTGGGGCG,0.926 ± 0.019
6,CATTGGTCGC,0.997 ± 0.035
7,CATTGGTGGC,0.992 ± 0.1
8,CATTGGTGGG,0.977 ± 0.028
9,CATTGTTAGG,1.01 ± 0.004
10,CATTTAATTC,1.04 ± 0.014
11,CATTTAGGGA,1.01 ± 0.029
12,CATTTATAAA,0.992 ± 0.011
13,CATTTATTAG,0.964 ± 0.0063
14,CATTTCAGGA,1.004 ± 0.0027
15,CATTTCTAGA,0.9709 ± 0.0055
16,CATTTGGGTC,1.013 ± 0.0038
17,CATTTGGGTT,1.03 ± 0.059
18,CATTTGTATT,1.01 ± 0.038
19,CATTTGTTAG,0.9657 ± 0.0071
20,CATTTTACTT,1.02 ± 0.035
21,CATTTTAGGG,0.988 ± 0.027
22,CATTTTGCGC,1.04 ± 0.042
23,CATTTTGGTT,0.995 ± 0.036
24,CATTTTTACG,1.01 ± 0.026
25,CCAAAAGTGG,1.04 ± 0.044
26,CCAAAATTG,1.02 ± 0.018

row,Sequence,switch fluorescence ratio
1,CCAAATCGGA,1 ± 0.022
2,CCAAATGCGA,1.97 ± 0.068
3,CCAAATGTCG,0.982 ± 0.025
4,CCAACAGGCC,1.14 ± 0.12
5,CCAACTTTTT,0.962 ± 0.014
6,CCAAGAGGGC,1.04 ± 0.023
7,CCAAGTTCGG,1.02 ± 0.011
8,CCAATGAGTG,1.01 ± 0.023
9,CCAATGCTGT,1.115 ± 0.0091
10,CCAATGGAGG,0.994 ± 0.034
11,CCAATGGGAA,1.01 ± 0.025
12,CCACAGCCGG,1.23 ± 0.13
13,CCACATTGCT,1.21 ± 0.017
14,CCACATTGTA,1.01 ± 0.018
15,CCACGATTAC,3.44 ± 1.3
16,CCACGGGATG,1.09 ± 0.03
17,CCACGTCAAC,1.59 ± 0.052
18,CCACGTGGGC,1.07 ± 0.14
19,CCACTGGTGT,3.92 ± 0.56
20,CCACTTACGG,1.6327 ± 0.00046
21,CCACTTAGGG,1.01 ± 0.021
22,CCACTTGCTA,1.16 ± 0.037
23,CCAGAACCGG,1.01 ± 0.0022
24,CCAGAAGGGG,1.52 ± 0.89
25,CCAGACGGGG,0.986 ± 0.029
26,CCAGAGGAGG,1.01 ± 0.076

row,Sequence,switch fluorescence ratio
1,CCAGATATGG,1.01 ± 0.041
2,CCAGATTGGG,1.004 ± 0.0052
3,CCAGCAAGAT,4.63 ± 0.51
4,CCAGCAGCGG,1.12 ± 0.063
5,CCAGCGAATG,1.05 ± 0.028
6,CCAGCGTGGT,1.1 ± 0.019
7,CCAGCTGGCT,1.026 ± 0.0063
8,CCAGCTTTGC,1.02 ± 0.057
9,CCAGGAGGGA,1.002 ± 0.0041
10,CCAGGAGGGG,1.04 ± 0.012
11,CCAGGCGATT,1.07 ± 0.095
12,CCAGGCTAAT,1.03 ± 0.014
13,CCAGGGAGGG,1.06 ± 0.051
14,CCAGGGATCA,1.049 ± 0.0023
15,CCAGGGCGCG,1.004 ± 0.002
16,CCAGGGGTAA,1.17 ± 0.055
17,CCAGGGGTCT,1.22 ± 0.028
18,CCAGGGGTTT,2.66 ± 2.4
19,CCAGGTCTAT,1.08 ± 0.018
20,CCAGTATTTT,0.999 ± 0.015
21,CCAGTCATCA,0.9961 ± 0.0014
22,CCAGTCGGAG,0.9776 ± 0.0038
23,CCAGTGACAT,1.03 ± 0.028
